Assay results reported in patent US20250333531A1 (NORDIC NANOVECTOR ASA, published 2025).

Key:
[1] = biological target: FcγRIIIa-V158 on Promega Jurkat effector cells (UniProt P08637 17-254, limits assumed); test: cell-based or functional assay
human CD37 [2] = biological target: T1, human CD37 (human, UniProt P11049 1-281); test: competitive radioligand binding on Ramos cells against 177Lu-NNV009 (2.7 nM), gamma counting
T1 construct: whole, on cells; also called CD37 antigen
T1 sequence (looked up): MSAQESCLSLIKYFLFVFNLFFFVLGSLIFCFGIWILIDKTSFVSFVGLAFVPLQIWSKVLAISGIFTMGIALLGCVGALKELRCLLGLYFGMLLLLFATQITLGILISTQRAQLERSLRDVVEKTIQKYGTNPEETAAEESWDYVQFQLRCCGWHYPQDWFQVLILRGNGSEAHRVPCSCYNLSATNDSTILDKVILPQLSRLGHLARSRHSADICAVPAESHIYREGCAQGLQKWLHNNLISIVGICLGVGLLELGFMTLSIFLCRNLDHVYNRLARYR
Procedure: (§1) The Eppendorf LoBind tubes 1.5 mL were used to prepare dilutions (working concentrations) of Abs. As much as 0.2 mL of the cell suspension (800 000 cells/tube), after it has been cooled down for 30 min on ice, was aliquoted to glass 12×75 mm counting tubes. Each tube was pre-labeled with a code specifically determining each sample. The tubes with cells were maintained on ice for whole time course of the experiment except for the time when counted on the gamma counter. The tubes were agitated on a planetary shaker at 350 RPM, 4° C. (on ice) for 15 min. […] The tubes were placed on the planetary shaker (GL 064), on ice, and shaken for 4 hours at 350 RPM. After 3.5 hours past from the beginning of incubation, the samples were assayed on Wizard2 gamma counter using protocol “Lu-177 General” (all detectors except for the detector #3 were used). Upon completion the counting, the cells were washed with ice-cold 0.5 mL 0.5% BSAPBS three times. All the tubes were assayed on the Wizard2 gamma counter again using the same sequence and parameters as before the washing.

human CD37 [3] = biological target: T1, human CD37; test: competitive radioligand binding on Ramos cells; ratio to Ki of NNV009 (assumed 2.3)
Procedure: as §1

[4] = biological target: T2, biotinylated truncated soluble human FcγRI (human, UniProt P12314 16-292, biotinylated); test: ELISA: IgG coated at 10000-4.5 ng/ml, biotinylated truncated soluble human FcγRI 250 ng/ml pre-complexed with AP-streptavidin, absorbance 405 nm
T2 construct: extracellular domain; Bought; preformed complex with AP-streptavidin
Procedure: 96 well EIA/RIA plates (CorningCostar) were coated with 100 μl titrated amounts of IgG variants (10.000-4.5 ng/ml) diluted in PBS and incubated O/N at 4° C. Remaining surface area were blocked with PBS containing 0.05% T and 4% S for 1 h at RT. The plates were washed four times with PBS/T using a Hydrospeed™ plate washer (Tecan). […] Following washing as above, bound receptor was visualized by addition of phosphatase substrate (1 mg/ml in diethanolamine buffer) (Sigma Aldrich). The plates were developed for 15-20 min before the 405 nm absorption values were recorded using a TECAN Sunrise spectrophotometer (Tecan).

[5] = biological target: T3, biotinylated soluble human FcRn (human, UniProt P55899 24-297; P61769 21-119, biotinylated); test: ELISA: IgG coated at 1000-0.45 ng/ml, biotinylated soluble human FcRn 250 ng/ml pre-complexed with AP-streptavidin, pH 6.0, absorbance 405 nm
T3 construct: extracellular domain; Bought; Beta-2-microglobulin is not mentioned; Used as preformed complex with AP-streptavidin
Procedure: Remaining surface area were blocked with PBS containing 0.05% T and 4% S for 1 h at RT. The plates were washed four times with PBS/T using a Hydrospeed™ plate washer (Tecan). […] Following washing as above with PBS/T or FcRn binding buffer ([…], 0.1 M NaCl, 0.05% T, pH 6.0), bound receptor was visualized by addition of phosphatase substrate (1 mg/ml in diethanolamine buffer) (Sigma Aldrich). The plates were developed for 20-30 min before the 405 nm absorption values were recorded using a TECAN Sunrise spectrophotometer (Tecan).

T2 sequence (P12314 16-292): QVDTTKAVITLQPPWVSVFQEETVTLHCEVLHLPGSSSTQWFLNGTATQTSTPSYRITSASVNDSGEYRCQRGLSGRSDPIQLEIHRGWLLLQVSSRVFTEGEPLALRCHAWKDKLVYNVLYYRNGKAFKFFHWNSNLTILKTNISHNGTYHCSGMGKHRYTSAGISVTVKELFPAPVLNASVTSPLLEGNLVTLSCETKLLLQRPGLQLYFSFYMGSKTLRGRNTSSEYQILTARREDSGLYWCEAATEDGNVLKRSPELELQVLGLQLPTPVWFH
T3 sequence (P55899 24-297 limits assumed, chain 1 of 2): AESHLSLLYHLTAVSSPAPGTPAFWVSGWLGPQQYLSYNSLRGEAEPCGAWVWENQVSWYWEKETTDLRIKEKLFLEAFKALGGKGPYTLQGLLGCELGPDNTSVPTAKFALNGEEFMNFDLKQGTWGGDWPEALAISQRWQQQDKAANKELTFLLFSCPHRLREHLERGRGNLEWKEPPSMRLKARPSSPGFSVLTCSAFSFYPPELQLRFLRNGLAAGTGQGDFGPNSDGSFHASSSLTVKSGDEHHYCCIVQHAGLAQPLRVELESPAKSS
T3 sequence (P61769 21-119 limits assumed, chain 2 of 2): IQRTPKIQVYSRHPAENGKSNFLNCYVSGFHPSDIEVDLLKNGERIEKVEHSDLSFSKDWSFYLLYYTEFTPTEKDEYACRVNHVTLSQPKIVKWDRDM

B1: DuoHexaBody-CD37 (bispecific antibody, human IgG1, kappa)
heavy 1: not shown
light 1: YDMTQSPSTLSASVGDRVTITCQASQNIIDYLAWYQQKPGKAPKLLIHKASTTLASGVPSRFKGSGSGTEFTLTISSLQPDDFATYYCQQGYSNSNIDNTFGGGTKVEIKRTVAAPSVFIFPPSDEQLKSGTASVVCLLNNFYPREAKVQWKVDNALQSGNSQESVTEQDSKDSTYSLSSTLTLSKADYEKHKVYACEVTHQGLSSPVTKSFNRGEC
heavy 2: not shown
light 2: DVVMTQSPSTLSASVGDRVTITCQASQNIDSNLAWYQQKPGKAPKFLIYYASNLPFGVPSRFKGSGSGTEFTLTISSLQPDDFATYYCQSADVGSTYVAAFGGGTKVEIKRTVAAPSVFIFPPSDEQLKSGTASVVCLLNNFYPREAKVQWKVDNALQSGNSQESVTEQDSKDSTYSLSSTLTLSKADYEKHKVYACEVTHQGLSSPVTKSFNRGEC
In the case of B1, the “average potency of the ADCC response (Example 13)” value [1] is reported as 0.9 nM and the “efficacy (Emax) relative to NNV024, ADCC FcγRIIIa-158V reporter assay” value [1] is reported as 53%.

B2: rituximab (antibody, human IgG1, kappa)
chain 1: not shown
chain 2: QIVLSQSPAILSASPGEKVTMTCRASSSVSYIHWFQQKPGSSPKPWIYATSNLASGVPVRFSGSGSGTSYSLTISRVEAEDAATYYCQQWTSNPPTFGGGTKLEIKRTVAAPSVFIFPPSDEQLKSGTASVVCLLNNFYPREAKVQWKVDNALQSGNSQESVTEQDSKDSTYSLSSTLTLSKADYEKHKVYACEVTHQGLSSPVTKSFNRGEC
With B2 the “average potency of the ADCC response (Example 13)” value [1] was 21.3 nM and the “efficacy (Emax) relative to NNV024, ADCC FcγRIIIa-158V reporter assay” value [1] was 75%.

B3: NNV025 (antibody, human IgG1, kappa)
heavy: not shown
light: DIQMTQSPSSLSASVGDRVTITCKASQDVSTAVDWYQQKPGKSPKLLINWASTRHTGVPSRFSGSGSGTDYTLTISSLQPEDFATYYCRQHYSTPFTFGQGTKLEIKRTVAAPSVFIFPPSDEQLKSGTASVVCLLNNFYPREAKVQWKVDNALQSGNSQESVTEQDSKDSTYSLSSTLTLSKADYEKHKVYACEVTHQGLSSPVTKSFNRGEC
notes: Humanized IgG1 kappa; also called AH02871HC + AH02877LC; AH2871HC_2877LC
B3 was tested, and the EC50 (human CD37 [2]) was 1.16 nM, the Ki (human CD37 [2]) was 0.533 nM and the “Ki(NNV009)/Ki(NNV020 var.)” value (human CD37 [3]) was 4.31 fold.

B4: AH02886 (antibody, human IgG1, kappa, V domains shown)
VH: QVQLVQSGAELKKPGASVKVSCKASGYSFTDYNMYWVKQAPGQRLEWMGYIDPYNGDTTYNQKFKGRVTLTVDTSASTAYMELSSLRSEDTAVYYCARSPYGHYAMDYWGQGTLVTVSS
VL: DIQMTQSPSSLSTSVGDRVTITCKASQDVSTAVDWYQQKPGKAPKLLINWASTRHTGVPSRFSGSGSGTDYTLTISSLQPEDFATYYCRQHYSTPFTFGQGTKLEIKR
notes: Humanized IgG1 kappa; also called NNV027; NNV020 #5
B4 was tested, and the EC50 (human CD37 [2]) was 1.16 nM, the Ki (human CD37 [2]) was 0.535 nM and the “Ki(NNV009)/Ki(NNV020 var.)” value (human CD37 [3]) was 4.3 fold.

B5: AH02871 (antibody, human IgG1, kappa, V domains shown)
VH: QVQLVQSGAEVVKPGASVKVSCKASGYSFTDYNMYWVKQAPGQRLEWMGYIDPYNGDTTYNQKFKGRVTITRDTSASTAYMELSSLRSEDTAVYYCARSPYGHYAMDYWGQGTLVTVSS
VL: DIQMTQSPSSLSASVGDRVTITCKASQDVSTAVDWYQQKPGKAPKLLINWASTRHTGVPSRFSGSGSGTDYTLTISSMQPEDFATYYCRQHYSTPFTFGQGTKLEIKR
notes: Humanized IgG1 kappa; also called NNV026; NNV020 #1
For B5, the EC50 (human CD37 [2]) was 1.17 nM, the Ki (human CD37 [2]) was 0.539 nM and the “Ki(NNV009)/Ki(NNV020 var.)” value (human CD37 [3]) was 4.27 fold.

B6: TCMC-NNV003 (antibody, human IgG1, kappa)
heavy: not shown
light: DIVMTQSHKLLSTSVGDRVSITCKASQDVSTAVDWYQQKPGQSPKLLINWASTRHTGVPDRFTGSGSGTDYTLTISSMQAEDLALYYCRQHYSTPFTFGSGTKLEIKRTVAAPSVFIFPPSDEQLKSGTASVVCLLNNFYPREAKVQWKVDNALQSGNSQESVTEQDSKDSTYSLSSTLTLSKADYEKHKVYACEVTHQGLSSPVTKSFNRGEC
modifications: TCMC chelator conjugate; sites not stated; TCMC chelator conjugate (GGG-TCMC); sites not stated
notes: chains are those of NNV003; also called NNV003-TCMC; NNV003-GGG-TCMC
In the case of B6, the “EC50 (read off the curve)” value [4] is reported as roughly 0.4 µg/mL and the “EC50 (read off the curve)” value [5] is reported as roughly 0.06 µg/mL.

B7: AH02877 (antibody, human IgG1, V domains shown)
VH: QVQLVQSGAEVVKPGASVKVSCKASGYSFTDYNMYWVKQAPGQRLEWMGYIDPYNGDTTYNQKFKGRATLTVDTSASTAYIELSSLRSEDTAVYYCARSPYGHYAMDYWGQGTLVTVSS
VL: DIQMTQSPSSLSASVGDRVTITCKASQDVSTAVDWYQQKPGKSPKLLINWASTRHTGVPSRFSGSGSGTDYTLTISSLQPEDFATYYCRQHYSTPFTFGQGTKLEIKR
notes: Full-length human IgG1 kappa; constant domains from NNV003; also called NNV020 #3
In the case of B7, the EC50 (human CD37 [2]) is reported as 0.917 nM, the Ki (human CD37 [2]) is reported as 0.422 nM and the “Ki(NNV009)/Ki(NNV020 var.)” value (human CD37 [3]) is reported as 5.45 fold.

B8: AH02875 (antibody, human IgG1, V domains shown)
VH: QIQLVQSGAELKKPGASVKVSCKASGYSFTDYNMYWVRQAPGQRLEWMGYIDPYNGDTTYNQKFKGRATITRDTSASTAYIELSSLRSEDTAVYYCARSPYGHYAMDYWGQGTLVTVSS
VL: DIQMTQSPSSLSASVGDRVTITCKASQDVSTAVDWYQQKPGKSPKLLINWASTRHTGVPSRFSGSGSGTDYTLTISSMQPEDFATYYCRQHYSTPFTFGQGTKLEIKR
notes: Full-length human IgG1 kappa; also called NNV020 #2
B8 was tested, and the EC50 (human CD37 [2]) was 1.15 nM, the Ki (human CD37 [2]) was 0.528 nM and the “Ki(NNV009)/Ki(NNV020 var.)” value (human CD37 [3]) was 4.36 fold.

B9: AH02879 (antibody, human IgG1, V domains shown)
VH: QIQLVQSGAEVVKPGASVKVSCKASGYSFTDYNMYWVKQAPGQRLEWIGYIDPYNGDTTYNQKFKGRATLTRDTSASTAYMELSSLRSEDTAVYYCARSPYGHYAMDYWGQGTLVTVSS
VL: DIQMTQSPSSLSTSVGDRVTITCKASQDVSTAVDWYQQKPGKSPKLLINWASTRHTGVPSRFSGSGSGTDYTLTISSMQPEDFATYYCRQHYSTPFTFGQGTKLEIKR
notes: Full-length human IgG1 kappa; constant domains from NNV003; also called NNV020 #4
For B9, the EC50 (human CD37 [2]) was 0.959 nM, the Ki (human CD37 [2]) was 0.441 nM and the “Ki(NNV009)/Ki(NNV020 var.)” value (human CD37 [3]) was 5.22 fold.
